According to US20240034800A1 (MEDYTOX, published 2024):
Where “and” joins values, the source holds several entries; their conditions need not be identical. Equal values may be shown once.

T1: human HVEM-Fc protein (human, UniProt Q92956 39-202, limits assumed)
T1 construct: not shown: Fc
T1 sequence (looked up): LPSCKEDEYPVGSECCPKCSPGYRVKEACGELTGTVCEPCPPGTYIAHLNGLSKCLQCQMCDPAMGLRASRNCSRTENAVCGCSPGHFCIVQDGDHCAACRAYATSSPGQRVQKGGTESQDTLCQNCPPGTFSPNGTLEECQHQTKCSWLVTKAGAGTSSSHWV

T2: Mouse HVEM-Fc (mouse, UniProt Q80WM9)
T2 construct: part fused to Fc; also called mouse HVEM-mFc; mHVEM
T2 sequence (fusion chain, looked up): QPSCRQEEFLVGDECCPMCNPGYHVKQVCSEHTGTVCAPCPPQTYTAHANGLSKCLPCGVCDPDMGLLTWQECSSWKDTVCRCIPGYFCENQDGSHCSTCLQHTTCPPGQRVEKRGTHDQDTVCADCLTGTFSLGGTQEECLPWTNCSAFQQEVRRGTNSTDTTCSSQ

T3: Monkey HVEM-Fc (Macaca fascicularis, UniProt A0A2K5W0R1)
T3 construct: part fused to Fc; also called cynomolgus monkey HVEM-hFc
T3 sequence (fusion chain): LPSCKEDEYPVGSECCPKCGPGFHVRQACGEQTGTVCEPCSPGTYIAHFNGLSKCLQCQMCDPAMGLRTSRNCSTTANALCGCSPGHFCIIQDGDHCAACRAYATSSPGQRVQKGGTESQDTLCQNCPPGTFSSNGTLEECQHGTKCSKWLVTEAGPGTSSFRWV


Experiments:
human HVEM-Fc protein [1] = biological target: T1, human HVEM-Fc protein; assay: Octet BLI
human HVEM-Fc protein [2] = biological target: T1, human HVEM-Fc protein; assay: Octet BLI (column kdis)
human HVEM-Fc protein [3] = biological target: T1, human HVEM-Fc protein; assay: ELISA, coated human HVEM-hFc, anti-human IgG4-HRP
Protocol: (§1) The binding ability of the full-size human antibody to HVEM was analyzed using an ELISA testing method. 0.2 μg/ml of each of human HVEM-hFc, cynomolgus monkey HVEM-hFc, and mouse HVEM-mFc proteins was coated on a 96-half-well plate for immunosorbent assay. To inhibit non-specific binding, reaction was carried out in phosphate buffered saline (PBS) containing 3% bovine serum albumin (BSA) for 1 hour, followed by treatment with serially diluted antibodies for 1 hour. To measure the amounts of the bound antibodies, horse radish peroxidase (HRP)-conjugated anti-human IgG4 antibody was used, and for the activity of HRP, a color reaction was induced using a 3,3′,5,5′-tetramethylbenzidine (TMB) substrate solution, and the reaction was terminated with 1N sulfuric acid. […] In the middle of each step, washing was performed three times using PBS (PBST) containing 0.1% Triton X-100. The binding ability of the antibodies was derived using SigmaPlot.

Mouse HVEM-Fc [4] = biological target: T2, Mouse HVEM-Fc; assay: ELISA, coated mouse HVEM-mFc, anti-human IgG4-HRP
Protocol: as §1

Monkey HVEM-Fc = biological target: T3, Monkey HVEM-Fc; assay: ELISA, coated cynomolgus monkey HVEM-hFc, anti-human IgG4-HRP
Protocol: as §1

human HVEM-Fc protein [5] = biological target: T1, human HVEM-Fc protein; assay: ELISA, coated human HVEM-hFc 0.2 ug/ml, anti-human IgG4-HRP, SigmaPlot fit
Protocol: as §1

Mouse HVEM-Fc [6] = biological target: T2, Mouse HVEM-Fc; assay: ELISA, coated mouse HVEM-mFc 0.2 ug/ml, anti-human IgG4-HRP, SigmaPlot fit
Protocol: as §1

human HVEM-Fc protein [7] = biological target: T1, human HVEM-Fc protein; assay: flow cytometry competition: human HVEM-Fc 1 ug/ml on BTLA-expressing Jurkat cells, antibody 10 or 100 nM; blocked ligand BTLA
Protocol: For flow cytometry, the stained cell lines were fixed on ice for 20 minutes using PBS containing 2% formaldehyde and stored in a refrigerator until flow cytometry.

| Kd (human HVEM-Fc protein [1]) | kon (human HVEM-Fc protein [1]) | koff (human HVEM-Fc protein [2]) | binding affinity (ELISA fit; table in pM) (human HVEM-Fc protein [3]) [pM] | binding affinity (ELISA fit; table in pM) (Mouse HVEM-Fc [4]) [pM] | binding affinity (ELISA fit; table in pM) (Monkey HVEM-Fc) [pM] | binding affinity (ELISA fit) (human HVEM-Fc protein [5]) [pM] | binding affinity (ELISA fit) (Mouse HVEM-Fc [6]) [pM] | binding result (human HVEM-Fc protein [7]) | Binder |
| --- | --- | --- | --- | --- | --- | --- | --- | --- | --- |
| 0.0263 nM | 287000 M⁻¹ s⁻¹ | 7.55e-06 s⁻¹ | 32.8 | 228 | 341 | 22 | 151 |  | HVEM001 (antibody, human IgG4 S228P, kappa, V domains shown) VH: EVQLLESGGGLVQPGGSLRLSCAASGFTFSNYAMHWVRQAPGKGLEWVSNINPSGGSTTYAQEFEDRFTISRDNSKNTLYLQMNSLRAEDTAVYYCATRSRQDSWGYFDIWGQGTLVTVSS VL: EIVLTQSPGTLSLSPGERATLSCRASRSISNYLAWYQQKPGQAPRLLIYGASTRATGIPDRFSGSGSGTDFTLTISRLEPEDFAVYYCQQYGSSPPLTFGQGTKVEIKR |
|  |  |  |  |  |  | 16.9 | 114 |  | HVEM032 (antibody, human IgG4 S228P, kappa, V domains shown) VH: EVQLLESGGGLVQPGGSLRLSCAASGFTFSNYAIHWVRQAPGKGLEWVSTISSPGSTINYADSVKGRFTISRDNSKNTLYLQMNSLRAEDTAVYYCASGYLYPAMDVWGQGTLVTVSS VL: EIVLTQSPGTLSLSPGERATLSCRASRSVGKYLSWYQQKPGQAPRLLIYGASKLQSGIPDRFSGSGSGTDFTLTISRLEPEDFAVYYCQQYGSWPPFTFGQGTKVEIKR |
|  |  |  |  |  |  | 16.1 | 16.6 |  | HVEM030 (antibody, human IgG4 S228P, kappa, V domains shown) VH: EVQLLESGGGLVQPGGSLRLSCAASGFTFSGYYWTWVRQAPGKGLEWVSTISASGDSTYYADSVKGRFTISRDNSKNTLYLQMNSLRAEDTAVYYCAHDRTFGYFDYWGQGTLVTVSS VL: EIVLTQSPGTLSLSPGERATLSCRASRSVGKYLAWYQQKPGQAPRLLIYAASSLQSGIPDRFSGSGSGTDFTLTISRLEPEDFAVYYCQQYGSSPPITFGQGTKVEIKR |
|  |  |  |  |  |  | 20.1 | 141 |  | HVEM041 (antibody, human IgG4 S228P, kappa, V domains shown) VH: EVQLLESGGGLVQPGGSLRLSCAASGFTFSSYAMSWVRQAPGKGLEWVSEISQSGSSNYNPSLKSRFTISRDNSKNTLYLQMNSLRAEDTAVYYCATGRWRFDYWGQGTLVTVSS VL: EIVLTQSPGTLSLSPGERATLSCRASRSVGKYLAWYQQKPGQAPRLLIYGASTRATGIPDRFSGSGSGTDFTLTISRLEPEDFAVYYCQQYGSSPPVTFGQGTKVEIKR |
|  |  |  |  |  |  | 21.5 | 112 |  | HVEM017 (antibody, human IgG4 S228P, kappa, V domains shown, also called HVEM0017) VH: EVQLLESGGGLVQPGGSLRLSCAASGFTFSTNYMSWVRQAPGKGLEWVSLISYSGSNKYYADSVKGRFTISHDNSKNTLYLQMNSLRAEDTAVYYCARGRGNTISGTFDLWGQGTLVTVSS VL: EIVLTQSPGTLSLSPGERATLSCRASRSVGKYLAWYQQKPGQAPRLLIYSASTLSSGIPDRFSGSGSGTDFTLTISRLEPEDFAVYYCQQYGSSPPITFGQGTKVEIKR |
|  |  |  |  |  |  | 25.9 | 158 |  | HVEM018 (antibody, human IgG4 S228P, kappa, V domains shown) VH: EVQLLESGGGLVQPGGSLRLSCAASGFTFSSYSMNWVRQAPGKGLEWVSAISGSGGGTYSADSVKGRFTISRDNSKNTLYLQMNSLRAEDTAVYYCARGKAYGYFDYWGQGTLVTVSS VL: EIVLTQSPGTLSLSPGERATLSCRASRSVGKYLAWYQQKPGQAPRLLIYAASTLQSGIPDRFSGSGSGTDFTLTISRLEPEDFAVYYCQQYGSSPPVIFGQGTKVEIKR |
|  |  |  |  |  |  | 20 | 126 |  | HVEM040 (antibody, human IgG4 S228P, kappa, V domains shown) VH: EVQLLESGGGLVQPGGSLRLSCAASGFTFSNYGMSWVRQAPGKGLEWVSSIYYSGDTYYNPSLESRFTISRDNSKNTLYLQMNSLRAEDTAVYYCASGSNAFDIWGQGTLVTVSS VL: EIVLTQSPGTLSLSPGERATLSCRASRSVGKYLAWYQQKPGQAPRLLIYGASSRTTGIPDRFSGSGSGTDFTLTISRLEPEDFAVYYCQQYGSSPPVTFGQGTKVEIKR |
| 0.0225 nM and 0.0146 nM | 425000 M⁻¹ s⁻¹ and 598000 M⁻¹ s⁻¹ | 9.53e-06 s⁻¹ and 8.75e-06 s⁻¹ | 25.9 | 203 | 65.9 | 23.4 | 219 |  | HVEM011 (antibody, human IgG4 S228P, kappa, V domains shown, Full-size human IgG4 (S228P) kappa antibody made in ExpiCHO-S; human IL-2 signal peptide is cleaved and left out; also called HVEM011 antibody) VH: EVQLLESGGGLVQPGGSLRLSCAASEFTFSSYAMHWVRQAPGKGLEWVSSITSASSYIDYADSVKGRFTISRDNSKNTLYLQMNSLRAEDTAVYYCARGTRGLFDHWGQGTLVTVSS VL: EIVLTQSPGTLSLSPGERATLSCRASRSVGKYLAWYQQKPGQAPRLLIYLGSNRASGIPDRFSGSGSGTDFTLTISRLEPEDFAVYYCQQYGSSPPITFGQGTKVEIKR |
|  |  |  |  |  |  |  |  | binds | HVEM004 (antibody, human IgG4 S228P, kappa, V domains shown) VH: EVQLLESGGGLVQPGGSLRLSCAASGFTFSSYAMSWVRQAPGKGLEWVSSISGSGGKTYYADSVRGRFTISRDNSKNTLYLQMNSLRAEDTAVYYCAKGVGYTTSGRFDYWGQGTLVTVSS VL: EIVLTQSPGTLSLSPGERATLSCRASRSISSYLAWYQQKPGQAPRLLIYGVSTRATGIPDRFSGSGSGTDFTLTISRLEPEDFAVYYCQQYGSWPPFTFGQGTKVEIKR |
| 0.0344 nM | 471000 M⁻¹ s⁻¹ | 1.62e-06 s⁻¹ | 32.5 | 55.6 | 61.8 |  |  |  | HVEM021 (antibody, human IgG4 S228P, kappa, V domains shown, Full-size human IgG4 (S228P) kappa antibody made in ExpiCHO-S; human IL-2 signal peptide is cleaved and left out; also called HVEM021 antibody) VH: EVQLLESGGGLVQPGGSLRLSCAASGFTFSTFAMHWVRQAPGKGLEWVSSIYPSGNTHYKPSLKSRFTISRDNSKNTLYLQMNSLRAEDTAVYYCARRHPGGGWIFDYWGQGTLVTVSS VL: EIVLTQSPGTLSLSPGERATLSCRASRSVGKYLAWYQQKPGQAPRLLIYGASTRATGIPDRFSGSGSGTDFTLTISRLEPEDFAVYYCQQYGSSPPVTFGQGTKVEIKR |
|  |  |  |  |  |  | 19.5 | 334 |  | HVEM039 (antibody, human IgG4 S228P, kappa, V domains shown) VH: EVQLLESGGGLVQPGGSLRLSCAASGFTFSSYGMNWVRQAPGKGLEWVSIINPSGDTTTYAQKFQGRFTISRDNSKNTLYLQMNSLRAEDTAVYYCARGRGAFDYWGQGTLVTVSS VL: EIVLTQSPGTLSLSPGERATLSCRASRSVGKYLAWYQQKPGQAPRLLIYGATSRATGIPDRFSGSGSGTDFTLTISRLEPEDFAVYYCQQYGSSPPVTFGQGTKVEIKR |
